# Measurements taken from the supplement of paper PMC11246515.
# ± gives the standard deviation of the averaged measurements.
# Experiment: total protein half-life in vivo (active degradation + dilution); higher = more stable protein
# [1] = E. coli NCM3722 delta-clpP delta-lon delta-hslV, growth: N-lim chemostat, doubling time 6 h
# [2] = E. coli NCM3722 delta-clpP, growth: N-lim chemostat, doubling time 6 h
# [3] = E. coli NCM3722 delta-hslV, growth: N-lim chemostat, doubling time 6 h
# [4] = E. coli NCM3722 delta-lon, growth: N-lim chemostat, doubling time 6 h
# [5] = E. coli NCM3722 delta-smpB, growth: N-lim chemostat, doubling time 6 h
# [6] = wild type E. coli NCM3722, growth: C-lim chemostat, doubling time 3 h
# [7] = wild type E. coli NCM3722, growth: C-lim chemostat, doubling time 12 h
# [8] = wild type E. coli NCM3722, growth: N-lim chemostat, doubling time 6 h
# [9] = wild type E. coli NCM3722, growth: N-lim chemostat, doubling time 12 h
# [10] = wild type E. coli NCM3722, growth: P-lim chemostat, doubling time 6 h
# [11] = wild type E. coli NCM3722, growth: P-lim chemostat, doubling time 12 h
# [12] = wild type E. coli NCM3722, growth: C-lim chemostat, doubling time 6 h
Sequence,total protein half-life in vivo [1] [h],total protein half-life in vivo [2] [h],total protein half-life in vivo [3] [h],total protein half-life in vivo [4] [h],total protein half-life in vivo [5] [h],total protein half-life in vivo [6] [h],total protein half-life in vivo [7] [h],total protein half-life in vivo [8] [h],total protein half-life in vivo [9] [h],total protein half-life in vivo [10] [h],total protein half-life in vivo [11] [h],total protein half-life in vivo [12] [h]
MTYQQAGRIAVLKRILGWVIFIPALISTLISLLKFMNTRQENKEGINAVMLDFTHVMIDMMQANTPFLNLFWYNSPTPNFNGGVNVMFWVIFILIFVGLALQDSGARMSRQARFLREGVEDQLILEKAKGEEGLTREQIESRIVVPHHTIFLQFFSLYILPVICIAAGYVFFSLLGFI,5.41 ± 0.081,5.2 ± 0.35,5.42 ± 0.091,5.94,6.11 ± 1.1,2.86 ± 0.074,13.5 ± 0.8,5.62 ± 0.27,9.96 ± 2.3,5.46 ± 0.11,12 ± 0.18,–
MAIKLEIKNLYKIFGEHPQRAFKYIEQGLSKEQILEKTGLSLGVKDASLAIEEGEIFVIMGLSGSGKSTMVRLLNRLIEPTRGQVLIDGVDIAKISDAELREVRRKKIAMVFQSFALMPHMTVLDNTAFGMELAGINAEERREKALDALRQVGLENYAHSYPDELSGGMRQRVGLARALAINPDILLMDEAFSALDPLIRTEMQDELVKLQAKHQRTIVFISHDLDEAMRIGDRIAIMQNGEVVQVGTPDEILNNPANDYVRTFFRGVDISQVFSAKDIARRTPNGLIRKTPGFGPRSALKLLQDEDREYGYVIERGNKFVGAVSIDSLKTALTQQQGLDAALIDAPLAVDAQTPLSELLSHVGQAPCAVPVVDEDQQYVGIISKGMLLRALDREGVNNG,5.58 ± 1.6,–,–,–,–,1.16,–,5.28,–,–,–,–
MKKFALLAGLFVFAPMTWAQDYNIKNGLPSETYITCAEANEMAKTDSAQVAEIVAVMGNASVASRDLKIEQSPELSAKVVEKLNQVCAKDPQMLLITAIDDTMRAIGKK [P0AB46],3 ± 0.32,4,6.28,–,4.66 ± 0.55,2.77,6.77 ± 0.093,4.93,10.1 ± 2.6,4.4 ± 1.1,8.95 ± 0.44,4.69 ± 0.2
MSAGKLPEGWVIAPVSTVTTLIRGVTYKKEQAINYLKDDYLPLIRANNIQNGKFDTTDLVFVPKNLVKESQKISPEDIVIAMSSGSKSVVGKSAHQHLPFECSFGAFCGVLRPEKLIFSGFIAHFTKSSLYRNKISSLSAGANINNIKPASFDLINIPIPPLAEQKIIAEKLDTLLAQVDSTKARFEQIPQILKRFRQAVLGGAVNGKLTEKWRNFEPQHSVFKKLNFESILTELRNGLSSKPNESGVGHPILRISSVRAGHVDQNDIRFLECSESELNRHKLQDGDLLFTRYNGSLEFVGVCGLLKKLQHQNLLYPDKLIRARLTKDALPEYIEIFFSSPSARNAMMNCVKTTSGQKGISGKDIKSQVVLLPPVKEQAEIVRRVEQLFAYADTIEKQVNNALARVNNLTQSILAKAFRGELTAQWRAENPDLISGENSAAALLEKIKAERAASGGKKASRKKS,5.47 ± 0.81,5.86 ± 0.12,5.48 ± 0.098,6.44 ± 0.56,5.68 ± 0.34,3.08 ± 0.36,10.9 ± 0.68,5.84 ± 0.44,10.7 ± 0.57,5.46 ± 0.33,10.9 ± 0.15,6.03 ± 0.34
MTMPTNQCPWRMQVHHITQETPDVWTISLICHDYYPYRAGQYALVSVRNSAETLRAYTISSTPGVSEYITLTVRRIDDGVGSQWLTRDVKRGDYLWLSDAMGEFTCDDKAEDKFLLLAAGCGVTPIMSMRRWLAKNRPQADVRVIYNVRTPQDVIFADEWRNYPVTLVAENNVTEGFIAGRLTRELLAGVPDLASRTVMTCGPAPYMDWVEQEVKALGVTRFFKEKFFTPVAEAATSGLKFTKLQPAREFYAPVGTTLLEALESNNVPVVAACRAGVCGCCKTKVVSGEYTVSSTMTLTDAEIAEGYVLACSCHPQGDLVLA,3.27 ± 0.63,–,–,–,–,–,–,–,–,–,–,–
MSKKIAVIGECMIELSEKGADVKRGFGGDTLNTSVYIARQVDPAALTVHYVTALGTDSFSQQMLDAWHGENVDTSLTQRMENRLPGLYYIETDSTGERTFYYWRNEAAAKFWLESEQSAAICEELANFDYLYLSGISLAILSPTSREKLLSLLRECRANGGKVIFDNNYRPRLWASKEETQQVYQQMLECTDIAFLTLDDEDALWGQQPVEDVIARTHNAGVKEVVVKRGADSCLVSIAGEGLVDVPAVKLPKEKVIDTTAAGDSFSAGYLAVRLTGGSAEDAAKRGHLTASTVIQYRGAIIPREAMPA,4.86 ± 0.33,4.46 ± 0.27,4.84 ± 1.2,–,4.53 ± 0.19,2.44 ± 0.65,11.1 ± 0.28,4.64 ± 0.11,8.67 ± 1.7,5.5 ± 0.33,10.6 ± 1.2,5.96 ± 0.1
MTVQTSKNPQVDIAEDNAFFPSEYSLSQYTSPVSDLDGVDYPKPYRGKHKILVIAADERYLPTDNGKLFSTGNHPIETLLPLYHLHAAGFEFEVATISGLMTKFEYWAMPHKDEKVMPFFEQHKSLFRNPKKLADVVASLNADSEYAAIFVPGGHGALIGLPESQDVAAALQWAIKNDRFVISLCHGPAAFLALRHGDNPLNGYSICAFPDAADKQTPEIGYMPGHLTWYFGEELKKMGMNIINDDITGRVHKDRKLLTGDSPFAANALGKLAAQEMLAAYAG,5.25 ± 1.1,5.29 ± 1.6,4.05 ± 0.35,4.62 ± 0.19,4.27 ± 0.24,2.88 ± 0.26,10.6 ± 0.23,3.97 ± 0.85,7.51 ± 0.27,5.31 ± 0.43,10.5 ± 1.5,5.19 ± 0.35
MKKTRTANLHHLYHEPLPENLKLTPKVEVDNVHQRQTTDVYEHALTITAWQQIYDQLHPGKFHGEFTEILLDDIQVFREYTGLALRQSCLVWPNSFWFGIPATRGEQGFIGSQCLGSAEIATRPGGTEFELSTPDDYTILGVVLSEDVITRQANFLHNPDRVLHMLRNQSALEVKEQHKAALWGFVQQALATFCENPENLHQPAVRKVLGDNLLMAMGAMLEEAQPMVTAESISHQSYRRLLSRAREYVLENMSEPVTVLDLCNQLHVSRRTLQNAFHAILGIGPNAWLKRIRLNAVRRELISPWSQSMTVKDAAMQWGFWHLGQFATDYQQLFSEKPSLTLHQRMREWG,5.53 ± 0.77,–,–,–,–,–,–,–,2.75,1.29,–,1.42
MSKRKVAIIGSGNIGTDLMIKILRHGQHLEMAVMVGIDPQSDGLARARRMGVATTHEGVIGLMNMPEFADIDIVFDATSAGAHVKNDAALREAKPDIRLIDLTPAAIGPYCVPVVNLEANVDQLNVNMVTCGGQATIPMVAAVSRVARVHYAEIIASIASKSAGPGTRANIDEFTETTSRAIEVVGGAAKGKAIIVLNPAEPPLMMRDTVYVLSDEASQDDIEASINEMAEAVQAYVPGYRLKQRVQFEVIPQDKPVNLPGVGQFSGLKTAVWLEVEGAAHYLPAYAGNLDIMTSSALATAEKMAQSLARKAGEAA,4.09 ± 1.4,5.24 ± 2.6,2.65 ± 0.48,2.43,2.21 ± 0.73,2.71 ± 0.36,6.77 ± 2.3,5.59,4.45,3.53,6.2 ± 0.2,4.45
MAELTALHTLTAQMKREGIRRLLVLSGEEGWCFEHTLKLRDALPGDWLWISPRPDAENHCSPSALQTLLGREFRHAVFDARHGFDAAAFAALSGTLKAGSWLVLLLPVWEEWENQPDADSLRWSDCPDPIATPHFVQHLKRVLTADNEAILWRQNQPFSLAHFTPRTDWYPATGAPQPEQQQLLKQLMTMPPGVAAVTAARGRGKSALAGQLISRIAGRAIVTAPAKASTDVLAQFAGEKFRFIAPDALLASDEQADWLVVDEAAAIPAPLLHQLVSRFPRTLLTTTVQGYEGTGRGFLLKFCARFPHLHRFELQQPIRWAQGCPLEKMVSEALVFDDENFTHTPQGNIVISAFEQTLWQSDPETPLKVYQLLSGAHYRTSPLDLRRMMDAPGQHFLQAAGENEIAGALWLVDEGGLSQQLSQAVWAGFRRPRGNLVAQSLAAHGNNPLAATLRGRRVSRIAVHPARQREGTGRQLIAGALQYTQDLDYLSVSFGYTGELWRFWQRCGFVLVRMGNHREASSGCYTAMALLPMSDAGKQLAEREHYRLRRDAQALAQWNGETLPVDPLNDAVLSDDDWLELAGFAFAHRPLLTSLGCLLRLLQTSELALPALRGRLQKNASDAQLCTTLKLSGRKMLLVRQREEAAQALFALNDVRTERLRDRITQWQLFH,5 ± 1.1,4.59 ± 0.41,4.37 ± 0.39,4.56 ± 0.19,4.39 ± 0.29,3.04 ± 0.3,–,4.07 ± 1.4,7.56 ± 0.58,6.65 ± 0.2,12.2 ± 1.5,6.05 ± 0.38
MPHSDELDAGNVLAVENLNIAFMQDQQKIAAVRNLSFSLQRGETLAIVGESGSGKSVTALALMRLLEQAGGLVQCDKMLLQRRSREVIELSEQNAAQMRHVRGADMAMIFQEPMTSLNPVFTVGEQIAESIRLHQNASREEAMVEAKRMLDQVRIPEAQTILSRYPHQLSGGMRQRVMIAMALSCRPAVLIADEPTTALDVTIQAQILQLIKVLQKEMSMGVIFITHDMGVVAEIADRVLVMYQGEAVETGTVEQIFHAPQHPYTRALLAAVPQLGAMKGLDYPRRFPLISLEHPAKQAPPIEQKTVVDGEPVLRVRNLVTRFPLRSGLLNRVTREVHAVEKVSFDLWPGETLSLVGESGSGKSTTGRALLRLVESQGGEIIFNGQRIDTLSPGKLQALRRDIQFIFQDPYASLDPRQTIGDSIIEPLRVHGLLPGKDAAARVAWLLERVGLLPEHAWRYPHEFSGGQRQRICIARALALNPKVIIADEAVSALDVSIRGQIINLLLDLQRDFGIAYLFISHDMAVVERISHRVAVMYLGQIVEIGPRRAVFENPQHPYTRKLLAAVPVAEPSRQRPQRVLLSDDLPSNIHLRGEEVAAVSLQCVGPGHYVAQPQSEYAFMRR,5.29 ± 0.17,3.52 ± 0.092,4 ± 0.11,4.37 ± 0.63,3.88 ± 0.28,2.37 ± 0.21,6.1 ± 0.44,3.6 ± 0.015,7.19 ± 1.5,4.059 ± 0.034,6.87 ± 0.34,3.9527 ± 0.00027
MKNTKLLLAIATSAALLTGCQNTHGIDTNMAISSGLNAYKAATLSDADAKAIANQGCAEMDSGNQVASKSSKYGKRLAKIAKALGNNINGTPVNYKVYMTSDVNAWAMANGCVRVYSGLMDMMNDNEIEGVLGHELGHVALGHSLAEMKASYAIVAARDAISATSGVASQLSRSQLGDIAEGAINAKYSRDKESEADDFSFDLLKKRGISTQGLVGSFETLASLDGGRTQSMFDSHPPSTERAQHIRDRIASGK,–,3.87,4.19,5.88,–,–,–,–,–,–,–,–
MLTEQQRRELDWEKTDGLMPVIVQHAVSGEVLMLGYMNPEALDKTLESGKVTFFSRTKQRLWTKGETSGNFLNVVSIAPDCDNDTLLVLANPIGPTCHKGTSSCFGDTAHQWLFLYQLEQLLAERKSADPETSYTAKLYASGTKRIAQKVGEEGVETALAATVHDRFELTNEASDLMYHLLVLLQDQGLDLTTVIENLRKRHQ,5.08 ± 0.17,4.38 ± 0.43,5.44 ± 1.4,4.24 ± 0.072,4.046 ± 0.0072,2.92 ± 0.14,–,4.51 ± 0.3,6.795 ± 0.027,–,12.9 ± 3.1,5.63 ± 1
MNPLLTDSRRQALRSASHWYAVLSGERVSPQQEARWQQWYEQDQDNQWAWQQVENLRNQLGGVPGDVASRALHDTRLTRRHVMKGLLLLLGAGGGWQLWQSETGEGLRADYRTAKGTVSRQQLEDGSLLTLNTQSAADVRFDAHQRTVRLWYGEIAITTAKDALQRPFRVLTRQGQLTALGTEFTVRQQDNFTQLDVQQHAVEVLLASAPAQKRIVNAGESLQFSASEFGAVKPLDDESTSWTKDILSFSDKPLGEVIATLTRYRNGVLRCDPAVAGLRLSGTFPLKNTDAILNVIAQTLPVKIQSITRYWINISPL,–,–,–,–,0.672,–,–,–,–,–,–,–
